This passage reports binding result and EC50 results from patent publication US20170334973A1 (INTEGRATED BIOTHERAPEUTICS, published 2017).

Experiment [1] has as its target T1, MARV (Musoke strain) GP (Marburg virus (MARV), Musoke strain, UniProt P35253 19-648).
T1 sequence: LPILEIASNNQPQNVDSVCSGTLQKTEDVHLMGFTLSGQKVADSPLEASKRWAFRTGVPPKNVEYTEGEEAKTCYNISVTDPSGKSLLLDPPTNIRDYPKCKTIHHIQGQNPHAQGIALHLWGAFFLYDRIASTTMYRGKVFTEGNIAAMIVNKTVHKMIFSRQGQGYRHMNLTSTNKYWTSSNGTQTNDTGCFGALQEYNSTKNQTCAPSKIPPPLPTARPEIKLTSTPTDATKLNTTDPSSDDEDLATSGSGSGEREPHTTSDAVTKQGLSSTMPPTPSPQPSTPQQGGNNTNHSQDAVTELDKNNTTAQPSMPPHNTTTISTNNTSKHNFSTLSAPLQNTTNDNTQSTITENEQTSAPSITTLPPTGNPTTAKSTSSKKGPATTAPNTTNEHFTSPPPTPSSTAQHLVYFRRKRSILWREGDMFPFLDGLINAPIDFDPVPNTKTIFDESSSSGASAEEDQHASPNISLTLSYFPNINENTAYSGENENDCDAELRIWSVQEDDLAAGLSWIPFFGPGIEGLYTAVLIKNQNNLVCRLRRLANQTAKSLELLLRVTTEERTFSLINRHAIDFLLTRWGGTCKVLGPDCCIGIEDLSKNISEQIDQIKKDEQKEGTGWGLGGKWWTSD
As to the kind of experiment: GP ELISA, purified mAb.

The target of experiment [2] is T2, EBOV GPcl (Ebola virus (EBOV), UniProt Q05320 33-200; Q05320 502-632).
T2 sequence 1: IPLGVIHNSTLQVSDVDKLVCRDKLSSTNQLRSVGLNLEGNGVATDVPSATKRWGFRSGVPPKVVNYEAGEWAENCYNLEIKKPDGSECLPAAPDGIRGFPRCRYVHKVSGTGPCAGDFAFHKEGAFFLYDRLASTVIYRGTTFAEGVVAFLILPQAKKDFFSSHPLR
T2 sequence 2: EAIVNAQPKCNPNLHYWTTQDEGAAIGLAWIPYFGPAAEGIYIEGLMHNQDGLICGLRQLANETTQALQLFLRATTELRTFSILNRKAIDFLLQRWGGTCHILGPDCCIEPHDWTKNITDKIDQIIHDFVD
As to the kind of experiment: ELISA.

Experiment [3] addresses T3, SUDV VLP (Sudan virus (SUDV), UniProt Q66814 33-676).
T3 sequence: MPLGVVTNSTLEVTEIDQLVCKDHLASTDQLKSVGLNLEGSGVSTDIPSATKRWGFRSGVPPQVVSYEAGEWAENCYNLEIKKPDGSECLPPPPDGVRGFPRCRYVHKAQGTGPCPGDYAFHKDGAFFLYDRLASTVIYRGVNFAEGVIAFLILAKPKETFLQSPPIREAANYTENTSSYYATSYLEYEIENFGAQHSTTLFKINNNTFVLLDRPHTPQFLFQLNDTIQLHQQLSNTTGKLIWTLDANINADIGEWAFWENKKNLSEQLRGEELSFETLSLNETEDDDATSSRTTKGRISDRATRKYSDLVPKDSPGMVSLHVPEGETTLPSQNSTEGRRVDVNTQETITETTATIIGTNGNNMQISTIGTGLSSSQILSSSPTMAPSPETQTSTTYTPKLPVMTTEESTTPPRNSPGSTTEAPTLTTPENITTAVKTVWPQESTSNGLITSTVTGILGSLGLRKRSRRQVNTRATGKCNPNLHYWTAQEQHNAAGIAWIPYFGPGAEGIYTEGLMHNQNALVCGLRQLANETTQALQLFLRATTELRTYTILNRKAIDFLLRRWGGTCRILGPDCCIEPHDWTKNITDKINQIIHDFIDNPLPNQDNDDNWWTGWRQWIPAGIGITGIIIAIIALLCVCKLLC
As to the kind of experiment: ELISA.

Experiment [4] deals with T4, EBOV VLP (Ebola virus (EBOV), UniProt Q05320 33-676).
T4 sequence: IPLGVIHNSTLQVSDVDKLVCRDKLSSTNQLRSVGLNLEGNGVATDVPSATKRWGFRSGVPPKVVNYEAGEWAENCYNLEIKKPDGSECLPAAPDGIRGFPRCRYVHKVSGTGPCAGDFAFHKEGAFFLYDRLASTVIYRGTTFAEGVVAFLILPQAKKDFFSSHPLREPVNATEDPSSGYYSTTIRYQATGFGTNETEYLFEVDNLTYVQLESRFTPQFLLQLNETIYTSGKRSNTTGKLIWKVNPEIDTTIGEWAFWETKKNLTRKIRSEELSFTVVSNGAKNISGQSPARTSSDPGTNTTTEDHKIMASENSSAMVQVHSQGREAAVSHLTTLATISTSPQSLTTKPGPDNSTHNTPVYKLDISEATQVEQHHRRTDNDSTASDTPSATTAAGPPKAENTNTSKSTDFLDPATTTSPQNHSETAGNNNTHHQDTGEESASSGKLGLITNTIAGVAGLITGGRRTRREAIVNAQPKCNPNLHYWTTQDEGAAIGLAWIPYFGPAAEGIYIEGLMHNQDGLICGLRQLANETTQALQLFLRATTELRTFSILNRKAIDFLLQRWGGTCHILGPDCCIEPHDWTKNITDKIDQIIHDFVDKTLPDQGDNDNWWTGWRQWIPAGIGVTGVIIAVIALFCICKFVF
Description: ELISA. A general note: ELISA stands for enzyme-linked immunosorbent assay.

Experiment [5] deals with T5, EBOV soluble GP (sGP) (Ebola virus (EBOV), UniProt P60170 33-324).
T5 sequence: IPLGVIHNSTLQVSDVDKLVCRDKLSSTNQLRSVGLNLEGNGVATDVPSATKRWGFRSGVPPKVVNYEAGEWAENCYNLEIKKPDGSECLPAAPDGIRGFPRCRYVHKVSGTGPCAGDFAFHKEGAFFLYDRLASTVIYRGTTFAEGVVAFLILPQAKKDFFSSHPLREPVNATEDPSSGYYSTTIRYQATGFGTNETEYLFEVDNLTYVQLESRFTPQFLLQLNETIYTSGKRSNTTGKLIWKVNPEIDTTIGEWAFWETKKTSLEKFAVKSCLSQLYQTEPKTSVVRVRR
Description: ELISA.

Experiment [6] has as its target T6, MARV VLP (Marburg virus (MARV), UniProt P35253 19-681).
T6 sequence: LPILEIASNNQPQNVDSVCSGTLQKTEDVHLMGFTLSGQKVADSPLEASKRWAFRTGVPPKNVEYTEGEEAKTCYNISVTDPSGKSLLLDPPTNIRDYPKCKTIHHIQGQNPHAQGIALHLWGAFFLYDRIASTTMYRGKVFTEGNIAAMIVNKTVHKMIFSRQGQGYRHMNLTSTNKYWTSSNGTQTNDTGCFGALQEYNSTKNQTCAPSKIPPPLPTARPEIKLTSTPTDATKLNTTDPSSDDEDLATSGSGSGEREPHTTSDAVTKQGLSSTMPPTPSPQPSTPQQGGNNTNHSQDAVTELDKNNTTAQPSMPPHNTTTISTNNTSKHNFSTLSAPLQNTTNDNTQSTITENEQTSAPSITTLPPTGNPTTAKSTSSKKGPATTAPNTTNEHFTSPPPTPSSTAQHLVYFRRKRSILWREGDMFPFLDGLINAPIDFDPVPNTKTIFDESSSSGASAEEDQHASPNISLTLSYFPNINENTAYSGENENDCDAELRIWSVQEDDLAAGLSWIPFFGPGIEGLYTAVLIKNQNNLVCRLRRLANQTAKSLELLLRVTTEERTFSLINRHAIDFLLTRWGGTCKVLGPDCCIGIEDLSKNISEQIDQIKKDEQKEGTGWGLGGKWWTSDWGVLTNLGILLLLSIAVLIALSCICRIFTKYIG
As to the kind of experiment: ELISA.

As a reminder, the EC50 is the concentration at which the effect is half-maximal. A low value points to an effect from little substance.

B1: FVM09 (antibody, V domains shown)
VH: EVQLVQSGAEVKRPGESLTISCKTSGYSFTDSWVAWVRQMPGKGLEWLGSIYPGDSETKYNPSFQGHVTISADKSVTTTYLKWSSLKASDTATYYCVKGSETWGQGVLVTVSS
VL: QLVLTQPASLSASPGASASLTCTFSGGINVAGYNILWYQQKAGSPPRYLLRYKSDSTKDQGSGVPSRFSGSKDASANTGILRISGLQSEDEADYYCAIGHSSGWIFGGGTRLTVL
As to B1, the binding result in experiment [1] and in experiment [2] was “no binding” throughout. The EC50 came out at 21.3 nM in experiment [3] and 24.2 nM in experiment [4].

B2: FVM02P (antibody, V domains shown)
VH: EVQLVESGGGLVQPGGSLRLSCAASGFTGFTFSDYAFYWVRQAPGKGLEWVGFIRGKAYGGTADYAASVKGRFTISRDNSKNTAYLQMSSLKTEDSAVYYCTSQGVTVATPYHWGQGVLVTVSS
VL: DIVLTQSPLSLPVTPGEPASISCRSSQSLLHSGGKTYLYWYLQKPGQSPQLLIHEVSNRASGVPDRFSGSGSGTDFTLKISRVEAEDVGVYYCMQGIQLPLTFGGGTKVEIKR
As for B2, the EC50 in experiment [1] came to 1 µg/mL; in experiment [3], 0.351 nM; in experiment [6] it was 7.73 nM; in experiment [4], 0.489 nM. In experiment [5], the binding result is recorded as “no binding”.

B3: FVM03 (antibody, V domains shown)
VH: QVQLQESGPVLVKPSETLSLTCAVSGYSISSAYAWSWIRQPPGKGLEWVGYVGSSSDYNPSLKSRVTISRDTSKNRIFLNLRSLTAADTAVYYCARDRANNSMDVWGRGVLVTVSS
VL: EIVLTQSPDSLGVSLGERVTINCKSSQSLLYSSNNKNYLAWYQQKPGQAPKLLIYWASTRESGVPNRFSGSGSGTDFTLTISGLQAEDVAVYYCQQYYSTPLTFGQGTKVEIKR
With B3, the EC50 in experiment [6] amounted to 0.793 nM.
